Square brackets hold non-standard residues; d marks the D form. Ends that are not written are not given here. * marks the point of attachment. Palmitoyl = CCCCCCCCCCCCCCCC(=O)*; Hyp = O=C(O)[C@@H]1C[C@@H](O)CN1
T1: human GIP-R (Homo sapiens, UniProt P48546)
T1 construct: expressed in transfected cells; host or cells: Chinese Hamster Lung (CHL) fibroblast cells, stably transfected
T1 sequence (P48546 22-466): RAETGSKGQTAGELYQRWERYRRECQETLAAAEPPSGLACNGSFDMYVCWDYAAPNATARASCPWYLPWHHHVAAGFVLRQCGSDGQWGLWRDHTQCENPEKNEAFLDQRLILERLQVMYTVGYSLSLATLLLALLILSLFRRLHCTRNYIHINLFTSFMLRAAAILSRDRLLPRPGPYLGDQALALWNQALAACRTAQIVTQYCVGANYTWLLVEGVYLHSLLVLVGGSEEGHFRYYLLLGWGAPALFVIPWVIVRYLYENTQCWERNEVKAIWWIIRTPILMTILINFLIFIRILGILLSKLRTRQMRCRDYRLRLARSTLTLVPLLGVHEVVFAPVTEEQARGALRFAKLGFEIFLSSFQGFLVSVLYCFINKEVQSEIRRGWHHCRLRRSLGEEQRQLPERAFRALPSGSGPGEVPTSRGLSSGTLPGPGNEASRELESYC

T2: human GIP receptor (GIP-R) (human, UniProt P48546 22-466)
T2 sequence (looked up): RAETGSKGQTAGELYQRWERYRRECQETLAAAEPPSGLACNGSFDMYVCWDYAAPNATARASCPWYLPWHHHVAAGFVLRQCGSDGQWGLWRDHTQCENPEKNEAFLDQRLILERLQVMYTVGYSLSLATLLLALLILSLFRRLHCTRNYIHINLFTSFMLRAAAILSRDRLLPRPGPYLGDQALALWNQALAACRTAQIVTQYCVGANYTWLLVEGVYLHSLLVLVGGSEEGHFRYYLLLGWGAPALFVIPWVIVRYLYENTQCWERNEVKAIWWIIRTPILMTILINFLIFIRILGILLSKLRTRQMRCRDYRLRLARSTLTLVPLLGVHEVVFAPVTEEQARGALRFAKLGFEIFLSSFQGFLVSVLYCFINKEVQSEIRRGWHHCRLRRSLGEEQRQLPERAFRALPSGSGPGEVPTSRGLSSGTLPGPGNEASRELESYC


Key:
DPP-IV = DPP-IV (Homo sapiens, UniProt P27487); test: Degradation of GIP and Glu3-substituted GIP analogs by DPP-IV (HPLC); format: in vitro ADME; settings: for Intact Peptide Remaining (%) 0 hrs. / remaining at 2 h, 2 μm / remaining at 4 h, 2 μm / remaining at 8 h, 2 μm: incubation with DPP-IV (5 mU), 37°C; for Intact Peptide Remaining (%) 0 hrs.: pH 7.8, 0 hrs; for half-life: incubation with DPP-IV, unit not given (time points in hrs), read-out: Estimated Half-Life; for remaining at 2 h, 2 μm / remaining at 4 h, 2 μm / remaining at 8 h, 2 μm: isolated DPP-IV enzyme (5 mU); for remaining at 2 h, 2 μm: pH 7.8, 2 hrs, read-out: Intact Peptide Remaining (%) 2 hrs.; for remaining at 4 h, 2 μm: pH 7.8, 4 hrs, read-out: Intact Peptide Remaining (%) 4 hrs.; for remaining at 8 h, 2 μm: pH 7.8, 8 hrs, read-out: Intact Peptide Remaining (%) 8 hrs.
human GIP-R = molecular target: T1, human GIP-R; test: Cyclic AMP production in GIP-R transfected CHL cells; format: cell-based
Method: Tissue Culture. […] (v/v) fetal bovine serum, 1% (v/v) antibiotics (100 U/ml penicillin, 0.1 mg/ml streptomycin) (all from Gibco, Paisley, Strathclyde, Scotland). BRIN-BD11 cells were cultured in RPMI-1640 tissue culture medium containing 10% (v/v) fetal bovine serum, 1% (v/v) antibiotics (100 U/ml penicillin, 0.1 mg/ml streptomycin) and 11.1 mm glucose. The origin and secretory characteristics of these cells have been described in detail previously (McClenaghan, N. H. et al., 1996, Diabetes 45:1132-1140). The cells were maintained in sterile tissue culture flasks (Corning Glass Works, Sunderland, UK) at 37° C. in an atmosphere of 5% CO2 and 95% air using a LEEC incubator (Laboratory Technical Engineering, Nottingham, UK).
Methods. […] The culture medium was removed and cells subsequently washed twice with 2 ml ice-cold HBS buffer (130 mm NaCl, 20 mm HEPES, 0.9 mm NaHPO4, 0.8 mm MgSO4, 5.4 mm KCl, 1.8 mm CaCl2, 5.6 mm glucose and 25 μm phenol red) (pH 7.4). […] The medium was subsequently removed and the cells lysed with […] of lysing solution (5% TCA, 3% SDS, 92% H2O, also containing 0.1 mm unlabelled cAMP and 0.1 mm unlabelled ATP) (Sigma, Poole, Dorset, UK). The plates were then left on a shaker at room temperature for 30 minutes and tritiated cAMP formation determined by column chromatography using Dowex and alumina ion exchange columns (BioRad Life Science Research, Alpha Analytical, Larne, UK) as previously described (Gault, V. A. et al 2002, Biochem. J. 367:913-920).

[1] = molecular target: T2, human GIP receptor (GIP-R); test: cell-based or functional assay

Chain of DPP-IV (P27487 whole entry, species assumed): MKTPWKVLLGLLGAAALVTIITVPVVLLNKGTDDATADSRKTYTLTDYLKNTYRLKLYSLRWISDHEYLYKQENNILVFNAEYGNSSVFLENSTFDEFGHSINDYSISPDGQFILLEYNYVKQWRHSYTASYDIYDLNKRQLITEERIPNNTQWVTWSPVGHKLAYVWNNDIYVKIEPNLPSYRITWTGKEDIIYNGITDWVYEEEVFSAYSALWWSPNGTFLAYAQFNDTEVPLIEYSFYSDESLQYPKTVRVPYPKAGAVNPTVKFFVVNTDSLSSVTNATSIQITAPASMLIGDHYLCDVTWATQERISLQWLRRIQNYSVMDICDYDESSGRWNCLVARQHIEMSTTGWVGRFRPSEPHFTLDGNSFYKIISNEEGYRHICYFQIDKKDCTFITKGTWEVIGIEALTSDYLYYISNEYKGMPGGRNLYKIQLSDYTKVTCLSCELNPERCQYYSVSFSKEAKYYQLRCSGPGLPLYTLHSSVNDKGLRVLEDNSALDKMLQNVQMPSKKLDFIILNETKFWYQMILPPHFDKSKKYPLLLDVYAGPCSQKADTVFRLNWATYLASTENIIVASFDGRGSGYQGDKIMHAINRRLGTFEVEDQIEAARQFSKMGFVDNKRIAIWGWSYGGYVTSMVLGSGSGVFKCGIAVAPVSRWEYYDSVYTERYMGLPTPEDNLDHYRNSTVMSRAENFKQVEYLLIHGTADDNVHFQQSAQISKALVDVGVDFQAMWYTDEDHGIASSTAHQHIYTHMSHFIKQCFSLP

| Molecule | Cyclic AMP EC50 (nm) [1] | cAMP response in presence of 10^-7 M GIP (% GIP max) [1] | also measured |
| --- | --- | --- | --- |
| YA[Hyp]GTFISDYSIAMDK(Palmitoyl)IHQQDFVNWLLAQKGKKNDWKHNITQ [(Hyp^3)LysPAL^16GIP] |  |  | Intact Peptide Remaining (%) 0 hrs. (DPP-IV): 100%; half-life (DPP-IV): > 8 h; remaining at 2 h, 2 μm (DPP-IV): 100%; remaining at 4 h, 2 μm (DPP-IV): 100%; remaining at 8 h, 2 μm (DPP-IV): 100% |
| YA[Hyp]GTFISDYSIAMDKIHQQDFVNWLLAQKGKKNDWKHNITQ [(Hyp^3)GIP] |  |  | Intact Peptide Remaining (%) 0 hrs. (DPP-IV): 100%; half-life (DPP-IV): > 8 h; remaining at 2 h, 2 μm (DPP-IV): 100%; remaining at 4 h, 2 μm (DPP-IV): 100%; remaining at 8 h, 2 μm (DPP-IV): 100%; resistance to DPP-IV degradation (DPP-IV; words, up to 8 hours incubation): completely resistant; EC50 (human GIP-R): 1340 nM; remaining activity at 0.1 µM (human GIP-R; CHL, read-out: cAMP response in presence of 10^-7 M GIP (% GIP max)): 56 ± 4% |
| native GIP (glucose-dependent insulinotropic polypeptide; gastric inhibitory polypeptide), GIP(1-42) (from UniProt P09681 52-93) (ligand) | 0.5 nm | 100 % GIP max |  |
| YAAGTFISDYSIAMDKIHQQDFVNWLLAQKGKKNDWKHNITQ [(Ala^3)GIP] | 2.3 nm | 88 % GIP max |  |
| YAWGTFISDYSIAMDKIHQQDFVNWLLAQKGKKNDWKHNITQ [(Trp^3)GIP] | 3 nm | 78 % GIP max |  |
| YAPGTFISDYSIAMDKIHQQDFVNWLLAQKGKKNDWKHNITQ [(Pro^3)GIP] | 207 nm | 66 % GIP max |  |
| YAKGTFISDYSIAMDKIHQQDFVNWLLAQKGKKNDWKHNITQ [(Lys^3)GIP] | 2.6 nm | 63.5 % GIP max |  |
| YAYGTFISDYSIAMDKIHQQDFVNWLLAQKGKKNDWKHNITQ [(Tyr^3)GIP] | 1.5 nm | 76 % GIP max |  |
| YAFGTFISDYSIAMDKIHQQDFVNWLLAQKGKKNDWKHNITQ [(Phe^3)GIP] | 1 nm | 62 % GIP max |  |
| YA[Hyp]GTFISDYSIAMDKIHQQDFVNWLLAQKGKKNDWKHNITQ [(Hyp^3)GIP] | 1340 nm | 56 % GIP max |  |
| YAPGTFISDYSIAMDK(Palmitoyl)IHQQDFVNWLLAQKGKKNDWKHNITQ [(Pro^3)LysPAL^16GIP] | 870 nm | 63 % GIP max |  |
| YA[Hyp]GTFISDYSIAMDK(Palmitoyl)IHQQDFVNWLLAQKGKKNDWKHNITQ [(Hyp^3)LysPAL^16GIP] | 138 nm | 48 % GIP max |  |

Reference: US20090170762A1, “Treatment of Diabetes Related Obesity” (UUTech Limited, priority 2005, published 2009)
